The record followed here is patent US20100004429A1.

The target of this assay is human thrombopoietin receptor (human c-Mpl) (human) (UniProt P40238). Briefly: cell-based or functional assay.

As for “PEG-rHuMGDF (pegylated recombinant human megakaryocyte proliferation and development factor) (from UniProt P40225 22-184) (ligand)”, the UT7/TPO (Max) was found to be 100%.
